# Results: the supplement of paper PMC9112550, “Optimization of the antimicrobial peptide Bac7 by deep mutational scanning” (BMC Biology, 2022)
# Tested on: Escherichia coli TOP10
# Experiment: shrunken log2 fold change of peptide-encoding DNA abundance (4.5 h post-induction vs induction); higher = less antimicrobial activity (less host growth inhibition)
# Settings: time post-induction: 4.5 h; library: site-saturation at positions 5, 18, 19, 20
# 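Note: peptides expressed intracellularly from a pBAD plasmid library in pooled LB shake-flask culture, induced with 0.3% L-arabinose, DNA abundance read by NGS, three biological replicates, DESeq2 with apeglm shrinkage.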
row,Sequence,shrunken log2 fold change
1,RRIRERPPRLPRPRPRPRVMPRP,-0.244
2,RRIRHRPPRLPRPRPRPMVTPRP,-1.08
3,RRIRPRPPRLPRPRPRPKVSPRP,0.0436
4,RRIRQRPPRLPRPRPRPWFTPRP,-0.356
5,RRIRCRPPRLPRPRPRPIVVPRP,-0.34
6,RRIRNRPPRLPRPRPRPLAFPRP,0.0414
7,RRIRVRPPRLPRPRPRPTHYPRP,-0.0832
8,RRIRCRPPRLPRPRPRPWNPPRP,0.228
9,RRIRTRPPRLPRPRPRPSGTPRP,-0.0272
10,RRIRKRPPRLPRPRPRPIGAPRP,0.479
11,RRIRKRPPRLPRPRPRPECQPRP,0.57
12,RRIRYRPPRLPRPRPRPYDSPRP,-0.0285
13,RRIRVRPPRLPRPRPRPWDKPRP,-0.0363
14,RRIRTRPPRLPRPRPRPFTDPRP,0.00943
15,RRIRARPPRLPRPRPRPYAWPRP,-0.129
16,RRIRIRPPRLPRPRPRPAFFPRP,0.0559
17,RRIRQRPPRLPRPRPRPYDEPRP,-0.00145
18,RRIRWRPPRLPRPRPRPNWPPRP,0.214
19,RRIRKRPPRLPRPRPRPSDGPRP,0.178
20,RRIRFRPPRLPRPRPRPRIYPRP,-0.326
21,RRIRVRPPRLPRPRPRPRETPRP,0.513
22,RRIRDRPPRLPRPRPRPYYFPRP,-0.209
23,RRIRPRPPRLPRPRPRPGRKPRP,0.199
24,RRIRHRPPRLPRPRPRPDPMPRP,0.0718
25,RRIRRRPPRLPRPRPRPQQNPRP,0.0713

row,Sequence,shrunken log2 fold change
1,RRIRSRPPRLPRPRPRPVCCPRP,0.183
2,RRIRYRPPRLPRPRPRPFAKPRP,-0.623
3,RRIRKRPPRLPRPRPRPSAWPRP,0.534
4,RRIRWRPPRLPRPRPRPGLNPRP,0.0915
5,RRIRDRPPRLPRPRPRPWPWPRP,-0.0837
6,RRIRLRPPRLPRPRPRPTFWPRP,0.303
7,RRIRHRPPRLPRPRPRPNLSPRP,0.28
8,RRIRVRPPRLPRPRPRPRYGPRP,-0.392
9,RRIRVRPPRLPRPRPRPSAGPRP,0.295
10,RRIRPRPPRLPRPRPRPHMMPRP,-0.19
11,RRIRHRPPRLPRPRPRPDPWPRP,0.0282
12,RRIRRRPPRLPRPRPRPDQCPRP,-0.00402
13,RRIRDRPPRLPRPRPRPNHSPRP,-0.33
14,RRIRGRPPRLPRPRPRPWRNPRP,0.297
15,RRIRVRPPRLPRPRPRPMCIPRP,-0.047
16,RRIRPRPPRLPRPRPRPGRHPRP,-0.166
17,RRIRQRPPRLPRPRPRPYRFPRP,0.0797
18,RRIRNRPPRLPRPRPRPTHCPRP,0.085
19,RRIRTRPPRLPRPRPRPWTTPRP,0.176
20,RRIRMRPPRLPRPRPRPKSKPRP,0.566
21,RRIRSRPPRLPRPRPRPQSQPRP,-0.258
22,RRIRGRPPRLPRPRPRPRREPRP,0.381
23,RRIRDRPPRLPRPRPRPDRWPRP,0.366
24,RRIRPRPPRLPRPRPRPSPQPRP,0.2
25,RRIRGRPPRLPRPRPRPITIPRP,0.0958

row,Sequence,shrunken log2 fold change
1,RRIRPRPPRLPRPRPRPWVRPRP,0.113
2,RRIRQRPPRLPRPRPRPKKKPRP,-0.0791
3,RRIRCRPPRLPRPRPRPSWWPRP,0.205
4,RRIRKRPPRLPRPRPRPCFAPRP,0.358
5,RRIRVRPPRLPRPRPRPEMRPRP,0.562
6,RRIRQRPPRLPRPRPRPAGFPRP,0.266
7,RRIRNRPPRLPRPRPRPKRCPRP,0.406
8,RRIRSRPPRLPRPRPRPVHQPRP,0.0888
9,RRIRTRPPRLPRPRPRPAPTPRP,0.0808
10,RRIRYRPPRLPRPRPRPRWKPRP,-0.295
11,RRIRARPPRLPRPRPRPEDIPRP,0.473
12,RRIRPRPPRLPRPRPRPNERPRP,0.181
13,RRIRIRPPRLPRPRPRPHICPRP,-0.0273
14,RRIRARPPRLPRPRPRPAYTPRP,-0.0472
15,RRIRHRPPRLPRPRPRPHPYPRP,-0.462
16,RRIRCRPPRLPRPRPRPIVGPRP,-0.477
17,RRIRRRPPRLPRPRPRPVDMPRP,0.0522
18,RRIRSRPPRLPRPRPRPTPLPRP,0.159
19,RRIRERPPRLPRPRPRPMNWPRP,0.0377
20,RRIRPRPPRLPRPRPRPFEAPRP,-0.105
21,RRIRRRPPRLPRPRPRPCNRPRP,-0.509
22,RRIRCRPPRLPRPRPRPNQDPRP,-0.348
23,RRIRKRPPRLPRPRPRPQMPPRP,0.0482
24,RRIRKRPPRLPRPRPRPMMVPRP,0.0826
25,RRIRKRPPRLPRPRPRPSEPPRP,0.249

row,Sequence,shrunken log2 fold change
1,RRIRWRPPRLPRPRPRPRMYPRP,-0.196
2,RRIRLRPPRLPRPRPRPESDPRP,-0.0845
3,RRIRDRPPRLPRPRPRPAVFPRP,-0.0356
4,RRIRGRPPRLPRPRPRPSIHPRP,0.162
5,RRIRVRPPRLPRPRPRPDIQPRP,1.23
6,RRIRGRPPRLPRPRPRPRTQPRP,0.826
7,RRIRWRPPRLPRPRPRPPPLPRP,1.32
8,RRIRMRPPRLPRPRPRPVRTPRP,0.673
9,RRIRRRPPRLPRPRPRPAVAPRP,0.66
10,RRIRCRPPRLPRPRPRPQHYPRP,-0.796
11,RRIRARPPRLPRPRPRPGRHPRP,0.159
12,RRIRGRPPRLPRPRPRPLIWPRP,0.602
13,RRIRQRPPRLPRPRPRPRFCPRP,-0.16
14,RRIRPRPPRLPRPRPRPQEWPRP,0.0248
15,RRIRYRPPRLPRPRPRPWLWPRP,0.0662
16,RRIRPRPPRLPRPRPRPKTEPRP,-0.217
17,RRIRSRPPRLPRPRPRPTPCPRP,0.254
18,RRIRHRPPRLPRPRPRPPQRPRP,0.248
19,RRIRARPPRLPRPRPRPQNCPRP,-0.19
20,RRIRPRPPRLPRPRPRPAVTPRP,0.0942
21,RRIRRRPPRLPRPRPRPMPMPRP,0.0681
22,RRIRFRPPRLPRPRPRPHQIPRP,-0.387
23,RRIRGRPPRLPRPRPRPDTEPRP,-0.0629
24,RRIRTRPPRLPRPRPRPMVKPRP,-0.0282
25,RRIRMRPPRLPRPRPRPCHWPRP,-0.022

row,Sequence,shrunken log2 fold change
1,RRIRCRPPRLPRPRPRPLRTPRP,1.01
2,RRIRTRPPRLPRPRPRPVEPPRP,0.00744
3,RRIRLRPPRLPRPRPRPPGQPRP,0.625
4,RRIRPRPPRLPRPRPRPMYVPRP,-1.06
5,RRIRDRPPRLPRPRPRPEKDPRP,0.194
6,RRIRKRPPRLPRPRPRPYHYPRP,0.00414
7,RRIRPRPPRLPRPRPRPPRMPRP,0.412
8,RRIRVRPPRLPRPRPRPPHIPRP,0.0567
9,RRIRYRPPRLPRPRPRPMFIPRP,-0.908
10,RRIRIRPPRLPRPRPRPWDFPRP,-0.11
11,RRIRFRPPRLPRPRPRPKGYPRP,0.00663
12,RRIRVRPPRLPRPRPRPKVSPRP,-0.0522
13,RRIRPRPPRLPRPRPRPALHPRP,0.681
14,RRIRSRPPRLPRPRPRPPDKPRP,0.0307
15,RRIRKRPPRLPRPRPRPRWNPRP,0.323
16,RRIRARPPRLPRPRPRPFSCPRP,-0.122
17,RRIRERPPRLPRPRPRPMRTPRP,0.0487
18,RRIRGRPPRLPRPRPRPSLVPRP,0.473
19,RRIRHRPPRLPRPRPRPCTIPRP,-0.0935
20,RRIRWRPPRLPRPRPRPFLQPRP,-0.499
21,RRIRSRPPRLPRPRPRPYDWPRP,-0.102
22,RRIRVRPPRLPRPRPRPWNEPRP,-0.0886
23,RRIRRRPPRLPRPRPRPHKYPRP,-0.192
24,RRIRCRPPRLPRPRPRPAPNPRP,0.526
25,RRIRERPPRLPRPRPRPFTIPRP,-0.162

row,Sequence,shrunken log2 fold change
1,RRIRLRPPRLPRPRPRPGRMPRP,0.123
2,RRIRCRPPRLPRPRPRPHYVPRP,-0.78
3,RRIRERPPRLPRPRPRPYHYPRP,-0.102
4,RRIRQRPPRLPRPRPRPQGWPRP,-0.151
5,RRIRGRPPRLPRPRPRPEAGPRP,1.21
6,RRIRKRPPRLPRPRPRPVTQPRP,0.169
7,RRIRARPPRLPRPRPRPIGKPRP,-0.00841
8,RRIRNRPPRLPRPRPRPDGQPRP,-0.0321
9,RRIRQRPPRLPRPRPRPHKSPRP,-0.0741
10,RRIRCRPPRLPRPRPRPYCEPRP,-0.195
11,RRIRCRPPRLPRPRPRPRMEPRP,0.0253
12,RRIRRRPPRLPRPRPRPAGKPRP,0.211
13,RRIRLRPPRLPRPRPRPILGPRP,-0.0186
14,RRIRCRPPRLPRPRPRPSVRPRP,-0.362
15,RRIRKRPPRLPRPRPRPTKGPRP,0.0795
16,RRIRIRPPRLPRPRPRPKCEPRP,0.07
17,RRIRNRPPRLPRPRPRPASGPRP,0.247
18,RRIRPRPPRLPRPRPRPLWGPRP,0.232
19,RRIRWRPPRLPRPRPRPDWEPRP,0.229
20,RRIRWRPPRLPRPRPRPPDRPRP,0.166
21,RRIRSRPPRLPRPRPRPDNLPRP,-0.0926
22,RRIRMRPPRLPRPRPRPHFAPRP,0.194
23,RRIRTRPPRLPRPRPRPRWLPRP,0.369
24,RRIRDRPPRLPRPRPRPCWHPRP,2.46
25,RRIRHRPPRLPRPRPRPPVKPRP,0.0106
